Results on four substances are retold here after PMC10754444.

The assay deals with ubiquitin (UniProt P0CG48).

For the substance “wt PRRSV DV PLP2_(385-578) (domain or fragment)”, the Kcat/Km of Ub-AMC hydrolysis in vitro (substrate Ub-AMC, R&D Systems; 25°C) amounted to 5000 M⁻¹ s⁻¹.

“PRRSV DV PLP2_(385-578) V518S/V520A (domain or fragment)” returned a Kcat/Km of Ub-AMC hydrolysis in vitro (substrate Ub-AMC, R&D Systems; 1.0 μM enzyme; 25°C) of 133 M⁻¹ s⁻¹.

In turn, “PRRSV DV PLP2_(385-578) V520A (domain or fragment)” returned a Kcat/Km of Ub-AMC hydrolysis in vitro (substrate Ub-AMC, R&D Systems; 1.0 μM enzyme; 25°C) of 190 M⁻¹ s⁻¹. “PRRSV DV PLP2_(385-578) V518S (domain or fragment)” yielded a Kcat/Km of Ub-AMC hydrolysis in vitro (substrate Ub-AMC, R&D Systems; 0.5 μM enzyme; 25°C) of 1100 M⁻¹ s⁻¹.
